Test results as given in patent US10632208B2, “Peptide-mediated drug delivery across epithelial barrier” (Purdue Research Foundation, priority 2017, dated 2020).

Columns and labels:
Caco-2 cell monolayers [1] = test: Apical-to-basolateral flux of paracellular marker FD4 through Caco-2 monolayers; assay type: cell-based, human; conditions: LAP 1 μg/mL, over a 72-h period; TNF-α 10 ng/mL positive control
Description: To determine the effect of LAP on Caco-2 permeability at specified time points (0, 24, 48 and 72 h) following incubation with recombinant purified LAP, 100 μl of FD4 (1 mg/mL in DMEM) was added to the apical side and the fluorescence readings (Em: 485 nm; Ex: 520 nm; Spectramax, Molecular Devices) for the basal medium (100 μl) were measured. Human TNF-α (10 ng/mL, R&D Systems) was added to both apical and basal sides and used as a positive control.

Caco-2 cell monolayers [2] = test: Transepithelial electrical resistance (TEER) of Caco-2 monolayers on Transwell inserts; assay type: cell-based, human
human TNF-α = test: ELISA of TNF-α in Caco-2 cell supernatants; assay type: cell-based; conditions: recombinant LAP 1 μg/mL, 8 h
Description: A semi-quantitative membrane-based RayBio Human Inflammation Antibody Array kit (Ray Biotech) was used to analyze a panel of 40 inflammatory mediators in Caco-2 cell supernatant infected either with the WT or lap^− strain (MOI, ˜50) at 37° C. for 1 h. After killing the extracellular bacteria by gentamicin (50 μg/mL), the Caco-2 cells were incubated for an additional 7 h at 37° C. Recombinant LAP (1 μg/mL) from ClearColi was incubated for 8 h with Caco-2 cells. After immunoblotting, the reaction intensity was quantified using NIH ImageJ software. The data were normalized and expressed as the mean fold changes as a ratio of lap^−/WT±SEM. For the ELISA, Caco-2 cell supernatants were centrifuged (2,000 rpm at 4° C. for 10 min) following treatment as above, and the quantification of TNF-α and IL-6 in was performed using human TNF-α and IL-6 ELISA kits (Ray Biotech) as per manufacturer's instruction. The quantification of TNF-α and IL-6 protein levels was performed in the ileal tissue lysates from mice using mouse TNF-α and IL-6 ELISA kits (Ray Biotech) as per manufacturer's instruction.

B1: LAP: Listeria adhesion protein, alcohol acetaldehyde dehydrogenase of Listeria monocytogenes, 866 aa, 94 kDa; recombinant, histidine-tagged form SEQ ID NO: 10 (protein)
chain: MAIKENAAQEVLEVQKVIDRLADNGQKALKAFESYNQEQVDNIVHAMALAGLDQHMPLAKLAVEETGRGLYEDKCIKNIFATEYIWNNIKNNKTVGVINEDVQTGVIEIAEPVGVVAGVTPVTNPTSTTLFKAIIAIKTRNPIIFAFHPSAQRCSSAAAKVVYDAAIAAGAPEHCIQWVEKPSLEATKQLMNHDKVALVLATGGAGMVKSAYSTGKPALGVGPGNVPAYIDKTAKIKRSVNDIILSKSFDQGMICASEQAVIVDKEVAKEVKAEMEANKCYFVKGAEFKKLESYVINPEKGTLNPDVVGKSPAWIANQAGFKVPEDTKILVAEIKGVGDKYPLSHEKLSPVLAFIEAANQAEAFDRCEEMLVYGGLGHSAVIHSTDKEVQKAFGIRMKACRIIVNAPSAQGGIGDIYNGFIPSLTLGCGSYGKNSVSQNVSATNLLNVKRIADRRNNMQWFKLPPKIFFEKYSTQYLQKMEGVERVFIVTDPGMGSFKYVDVVIEHLKKRGNDVAYQVFADVEPDPSDVTVYKGAELMKDFKPDTIIALGGGSAMDAAKGMWLFYEHPEASFFGLKQKFLDIRKRTFKYPKLGGKAKFVAIPTTSGTGSEVTPFAVITDKENNIKYPLADYELTPDVAIVDAQYVTTVPAHITADTGMDVLTHAIESYVSVMASDYTRGLSIRAIELVFENLRESVLTGDPDAREKMHNASALAGMAFANAFLGINHSLAHKIGPEFHIPHGRANAILMPHVIRYNALKPKKHALFPRYESFRADEDYARISRIIGFPAATTEEGVKSLVDEIIKLGKDVGIDMSLKGQNVAKKDLDAVVDTLADRAFMDQCTTANPKQPLVSELKEIYLEAYKGV
modifications: Listeria monocytogenes
- FD4 permeability (Caco-2 cell monolayers [1]): significant increase in FD4 permeability equivalent to TNF-α
- LAP concentration giving maximum reduction in TEER (Caco-2 cell monolayers [2]; apical treatment, 1-1000 ng/mL, 48-h period): 500 to 1000 ng/mL
- reduction in TEER (Caco-2 cell monolayers [2]; purified recombinant LAP added to both the basolateral and apical compartments): 25±2%
- reduction in TEER (Caco-2 cell monolayers [2]; purified recombinant LAP added to the apical compartment): 12±1%
- reduction in TEER (Caco-2 cell monolayers [2]; purified recombinant LAP added to the basolateral compartment): 27±1%
- TNF-α production (human TNF-α): significantly higher levels
